# Experimental data from patent US20220193133A1 (CENTURY THERAPEUTICS, published 2022).
# Where two headings read alike, the source gives them in different places.
# T1: human lysozyme (human, UniProt P61626 19-148, biotinylated)
# T1 construct: also called human lysozyme protein
# T1 sequence (looked up): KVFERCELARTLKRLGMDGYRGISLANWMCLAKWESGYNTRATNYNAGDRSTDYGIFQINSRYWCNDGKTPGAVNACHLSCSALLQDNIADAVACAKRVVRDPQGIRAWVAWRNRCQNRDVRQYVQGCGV
# B1: humanized B11 VHH CAR (hyLYSO_CW_P01_B11) on Nurkat cells (other, not shown: small tags and cut ends)
# chain: EVQLLESGGGLVQPGGSLRLSCAASGGIFSGGRMGWFRQAPGKEREFVAAVITRGGSTYYADSVKGRFTISRDNSKNTLYLQMNSLRAEDTAVYYCAASEVTYDEGRYIGTKSTYDTWGQGTQVTVSS
# notes: also called B11 (p1649); P1649
# What was measured:
# [1] = biological target: T2, chicken lysozyme (Hen Egg Lysozyme) (chicken, UniProt P00698 19-147, biotinylated); assay: flow cytometry, CAR Nurkat cells + biotinylated HEL, streptavidin-APC, % positive cells
# T2 construct: also called HEL; chicken egg white lysozyme
# T2 sequence (P00698 19-147): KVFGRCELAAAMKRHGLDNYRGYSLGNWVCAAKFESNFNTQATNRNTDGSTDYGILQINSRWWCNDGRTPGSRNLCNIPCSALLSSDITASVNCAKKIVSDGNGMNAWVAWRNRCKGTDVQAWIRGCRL
# [2] = biological target: T3, B11 protein (humanized B11 VHH as ELISA antigen); assay: periplasmic extract ELISA, absorbance 450 nm, single point
# T3 construct: Panning used B11-Fc; the ELISA legend says only 'B11 protein'
# [3] = biological target: T4, D04 protein (humanized D04 VHH as ELISA antigen); assay: as above
# T4 construct: Panning used biotinylated D04-Fc; the ELISA legend says only 'D04 protein'
# [4] = biological target: T2, chicken lysozyme (Hen Egg Lysozyme); assay: flow cytometry, CAR Jurkat cells + 10 ug/mL biotinylated lysozyme, streptavidin-APC, % positive cells
# human lysozyme = biological target: T1, human lysozyme; assay: as above
# [5] = biological target: T4, D04 protein (humanized D04 VHH as ELISA …); assay: periplasmic extract ELISA, absorbance 450 nm, single point; remark: listed apart in the source
# [6] = biological target: T3, B11 protein (humanized B11 VHH as ELISA …); assay: as above; remark: listed apart in the source
# [7] = biological target: T5, D04-his tagged VHH (humanized D04); assay: Octet (BLI) specificity analysis, sample vs analyte
# T5 construct: also called LysoD04.His; D04 his-tagged protein
# [8] = biological target: T6, D04-Fc (humanized D04 VHH Fc fusion); assay: as above
# T6 construct: also called LysoD04.Fc; not shown: Fc
# [9] = biological target: total human IgG from sera; assay: as above
# Fc-y fragment = assay: as above
# [10] = biological target: PROT939 (an off target VHH-fc soluble); assay: as above
# [11] = biological target: the molecule itself; assay: as above
# [12] = biological target: T7, B11-his tagged VHH (humanized B11); assay: Octet (BLI), anti-idiotype VHH-Fc vs his-tagged VHH; table title prints D04-his, its footnote prints B11-his
# T7 construct: also called B11-his protein; B11 his-tagged protein
# [13] = biological target: T5, D04-his tagged VHH (humanized D04); assay: Octet (BLI), anti-idiotype VHH-Fc vs his-tagged VHH; table title prints B11-his, paragraph 353 ties these values to D04
# [14] = biological target: B1; assay: flow cytometry, VHH-Fc on CAR Nurkat cells, 3-fold dilutions 50 to 0.02 nM, anti-Fc APC, %Fc positive cells
# Description: […] Fc-fusion protein was detected via anti-Fc APC, and the percentage of cells that were positive for this detection method are shown. […] Controls include (i) no VHH-Fc added and (ii) the anti-VHH cocktail detection reagent (far right). The samples shown in the graphs for each protein appear in the order as specified in the legend.
binder,measurement,setting,value
B1,binding result,[1],binds
"huD04_CNTY1_B12 anti-idiotype VHH (periplasmic extract) (VHH, Screened as periplasmic extract; also called VHH of AMD82) VHH: EVQLLESGGGLVQPGGSLRLSCAASGRTSSNYVMGWYRQAPGKEREGVSAITSGGSTYYADSVKGRFTISRDNSKNTLYLQMNSLRAEDTAVYYCAANLYSRTGAYDYWGQGTQVTVSS",binding result,[2],no binding
"huD04_CNTY1_D10 anti-idiotype VHH (periplasmic extract) (VHH, Screened as periplasmic extract; also called VHH of AMD88) VHH: EVQLLESGGGLVQPGGSLRLSCAASGRTSSNYVIGWYRQAPGKEREFVSAISGGGSTYYADSVKGRFTISRDNSKNTLYLQMNSLRAEDTAVYYCATRIYTARGAGDYWGQGTQVTVSS",binding result,[2],no binding
"huD04_CNTY1_D12 anti-idiotype VHH (periplasmic extract) (VHH, Screened as periplasmic extract; also called VHH of AMD86) VHH: EVQLLESGGGLVQPGGSLRLSCAASGFTSSNYVMGWYRQAPGKEREGVSAISSSGRTYYADSVKGRFTISRDNSKNTLYLQMNSLRAEDTAVYYCAAAYYSGYGETDYWGQGTQVTVSS",binding result,[2],no binding
same,binding result,[3],binds
"LYSO_CW_P01_D04 VHH CAR (camelid D04) on Jurkat cells (other, not shown: small tags and cut ends, camelid (not humanized) VHH; also called D04 (p244)) QVQLVESGGGLVQAGGSLRLSCAASGRIFSIYDTIGWFRQAPGKEREFVAATITTAGITTYDDSVKGRFTISRDNAKNTVYLQMNSLKPEDTAVYYCYVRVGRGDYWGQGTQVTVSS",binding result,[4],binds
same,binding result,human lysozyme,no binding (tested: 10 ug/mL)
"humanized D04 VHH CAR (hyLYSO_CW_P01_D04) on Nurkat cells or primary T cells (other, not shown: small tags and cut ends, also called D04 (p1648); P1650) EVQLLESGGGLVQPGGSLRLSCAASGRIFSIYDTIGWFRQAPGKEREFVAATITTAGITTYDDSVKGRFTISRDNSKNTLYLQMNSLRAEDTAVYYCYVRVGRGDYWGQGTQVTVSS",binding result,[1],binds
p253 (other) CAR: QVQLVESGGGLVQAGGSLRLSCAASGSSFSIYDVGWFRQAPGKEREFVAATIETGGHTSYADSVKGRFTISRDNAKNTVYLQMNSLKPEDTAVYYCYAKIVYDQGPSYYYWGQGTQVTVSS,binding result,[4],binds
same,binding result,human lysozyme,no binding (tested: 10 ug/mL)
"huB11_CNTY1_E11 anti-idiotype VHH (periplasmic extract) (VHH, Screened as periplasmic extract; also called VHH of AMD75) VHH: EVQLLESGGGLVQPGGSLRLSCAASGFAFSDYVMGWYRQAPGKEREFVSAIRSTTSTYYADSVKGRFTISRDNSKNTLYLQMNSLRAEDTAVYYCAADVWSGYEYDYWGQGTQVTVSS",binding result,[5],no binding
"huB11_CNTY1_B11 anti-idiotype VHH (periplasmic extract) (VHH, Screened as periplasmic extract; also called VHH of AMD76) VHH: EVQLLESGGGLVQPGGSLRLSCAASGLAFSSYAMGWYRQAPGKEREFVSVISGTGETLYADSVKGRFTISRDNSKNTLYLQMNSLRAEDTAVYYCAADVWSGYEYDYWGQGTQVTVSS",binding result,[6],binds
same,binding result,[5],no binding
"AMD88 (huD04_CNTY1_D10 anti-idiotype VHH IgG1-Fc fusion) (Fc fusion, not shown: IgG1 Fc) EVQLLESGGGLVQPGGSLRLSCAASGRTSSNYVIGWYRQAPGKEREFVSAISGGGSTYYADSVKGRFTISRDNSKNTLYLQMNSLRAEDTAVYYCATRIYTARGAGDYWGQGTQVTVSS",Response,[7],0.0923
same,Response,[8],2.18
same,Response,[9],-0.0338
same,Response,Fc-y fragment,-0.0261
same,Response,[10],-0.024
same,Response,[11],0.149
same,Response,[12],-0.0183
same,Kd,[13],72.3 nM
same,Response,[13],0.289
same,koff,[13],0.0425 s⁻¹
same,kon,[13],588000 M⁻¹ s⁻¹
same,binding result,[14],no binding (tested: 50 nM)
"huD04_CNTY1_D11 anti-idiotype VHH (periplasmic extract) (VHH, Screened as periplasmic extract; also called VHH of AMD87) VHH: EVQLLESGGGLVQPGGSLRLSCAASGSTFSYYYMGWYRQAPGKERELVSAISSGGSIYYADSVKGRFTISRDNSKNTLYLQMNSLRAEDTAVYYCARRTYYGDEADYWGQGTQVTVSS",binding result,[2],no binding
p248 (other) CAR: QVQLVESGGGLVQAGGSLRLSCAASGSIFSFYDVGWFRQAPGKEREFVAASITKGGGTYYVDSVKGRFTISRDNAKNTVYLQMNSLKPEDTAVYYCALATPHGYDFWGQGTQVTVSS,binding result,[4],no binding (tested: 10 ug/mL)
same,binding result,human lysozyme,no binding (tested: 10 ug/mL)
"AMD77 (huD04_CNTY1_A11 anti-idiotype VHH IgG1-Fc fusion) (Fc fusion, Biotinylated in the FIG. 18 and FIG. 19 assays; the biotin sites are not stated., not shown: IgG1 Fc (and any hinge or linker to it)) VHH: EVQLLESGGGLVQPGGSLRLSCAASGFTSSNYVMGWYRQAPGKEREFVSAIGSGGSTYYADSVKGRFTISRDNSKNTLYLQMNSLRAEDTAVYYCAAEIYTSGARDYWGQGTQVTVSS",Response,[7],0.337
same,Response,[8],2.67
same,Response,[9],-0.0155
same,Response,Fc-y fragment,-0.009
same,Response,[10],-0.0053
same,Kd,[13],2.08 nM
same,Response,[13],0.497
same,koff,[13],0.00145 s⁻¹
same,kon,[13],696000 M⁻¹ s⁻¹
